Assay results reported in patent US20240417436A1 (BRIGHT PEAK THERAPEUTICS, published 2024).
Primed or numbered codes have the meaning given here. [ ]: non-standard residue; d: D form. Ygp″ = O-(PEG8-amino)-tyrosine (O-(8x polyethylene glycol-amino)-tyrosine); Yn3″ = O-(PEG9-azido)-tyrosine (O-(9x polyethylene glycol-azido)-tyrosine); Ygp = O-(8x polyethylene glycol-amino)-tyrosine; Yn3 = O-(9x polyethylene glycol-azido)-tyrosine; hSer = N[C@@H](CCO)C(=O)O; Nle = CCCC[C@H](N)C(=O)O

T1: IL-2 receptor βγ complex on pan T cells (human, UniProt P14784 27-551; P31785 23-369)
T1 sequence (looked up) 1: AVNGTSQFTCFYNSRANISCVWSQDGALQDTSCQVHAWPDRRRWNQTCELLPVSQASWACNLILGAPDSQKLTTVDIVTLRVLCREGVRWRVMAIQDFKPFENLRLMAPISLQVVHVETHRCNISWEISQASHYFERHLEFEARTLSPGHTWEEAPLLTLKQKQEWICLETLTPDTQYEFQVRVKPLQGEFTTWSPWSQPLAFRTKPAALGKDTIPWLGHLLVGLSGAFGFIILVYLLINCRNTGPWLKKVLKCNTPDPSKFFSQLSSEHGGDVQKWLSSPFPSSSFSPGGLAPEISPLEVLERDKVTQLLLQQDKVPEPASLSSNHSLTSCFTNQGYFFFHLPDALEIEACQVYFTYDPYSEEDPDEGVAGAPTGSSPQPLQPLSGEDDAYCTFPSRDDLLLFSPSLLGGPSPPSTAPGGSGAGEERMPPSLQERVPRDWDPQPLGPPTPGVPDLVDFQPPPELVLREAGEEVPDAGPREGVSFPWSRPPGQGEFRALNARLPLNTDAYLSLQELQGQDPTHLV
T1 sequence (looked up) 2: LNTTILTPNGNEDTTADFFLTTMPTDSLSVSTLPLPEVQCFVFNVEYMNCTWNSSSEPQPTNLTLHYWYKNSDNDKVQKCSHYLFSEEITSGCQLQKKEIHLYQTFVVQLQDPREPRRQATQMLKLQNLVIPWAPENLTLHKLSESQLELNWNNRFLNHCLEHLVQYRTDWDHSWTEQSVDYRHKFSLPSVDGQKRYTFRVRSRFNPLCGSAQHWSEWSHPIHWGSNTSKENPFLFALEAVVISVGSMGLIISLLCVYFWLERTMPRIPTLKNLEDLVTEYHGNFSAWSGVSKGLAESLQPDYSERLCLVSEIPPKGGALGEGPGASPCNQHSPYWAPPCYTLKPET

B1: CMP-144, MMP2 cleaved (ligand)
chain: APTSSSTKKTQLQLEHLLLDLQKILNGINNYKNPKLTR[Nle]L[hSer][Yn3]KF[Ygp][Nle]PKKATELKHLQCLEEELKPLEEVL[hSer]LAQSKNFHLRPRDLISNINVIVLELKGSETTF[hSer]CEYADETATIVEFLNRWITFSQSIISTLT
modifications: not fully specified (residue 23); ends and bridges not checked; also: MMP2-cut remnant of cleavable moiety on Lys23 side chain, not given here
B2: CMP-149 (ligand)
chain: APTSSSTKKTQLQLEHLLKDLQ[Nle]ILNGINNYKNPKLTR[Nle]L[hSer][Yn3]KF[Ygp][Nle]PKKATELKHLQCLEEELKPLEEVL[hSer]LAQSKNFHLRPRDLISNINVIVLELKGSETTF[hSer]CEYADETATIVEFLNRWITFSQSIISTLT
modifications: not fully specified (residue 19); ends and bridges not checked; also: cleavable moiety on Lys19 side chain, structure not given here
B3: CMP-147, MMP2 cleaved (ligand)
chain: APTSSSTKKTQLKLEHLLLDLQ[Nle]ILNGINNYKNPKLTR[Nle]L[hSer][Yn3]KF[Ygp][Nle]PKKATELKHLQCLEEELKPLEEVL[hSer]LAQSKNFHLRPRDLISNINVIVLELKGSETTF[hSer]CEYADETATIVEFLNRWITFSQSIISTLT
modifications: not fully specified (residue 13); ends and bridges not checked; also: MMP2-cut remnant of cleavable moiety on Lys13 side chain, not given here
B4: CMP-149, MMP2 cleaved (ligand)
chain: APTSSSTKKTQLQLEHLLKDLQ[Nle]ILNGINNYKNPKLTR[Nle]L[hSer][Yn3]KF[Ygp][Nle]PKKATELKHLQCLEEELKPLEEVL[hSer]LAQSKNFHLRPRDLISNINVIVLELKGSETTF[hSer]CEYADETATIVEFLNRWITFSQSIISTLT
modifications: not fully specified (residue 19); ends and bridges not checked; also: MMP2-cut remnant of cleavable moiety on Lys19 side chain, not given here
B5: CMP-148 (ligand)
chain: APTSSSTKKTQLQLKHLLLDLQ[Nle]ILNGINNYKNPKLTR[Nle]L[hSer][Yn3]KF[Ygp][Nle]PKKATELKHLQCLEEELKPLEEVL[hSer]LAQSKNFHLRPRDLISNINVIVLELKGSETTF[hSer]CEYADETATIVEFLNRWITFSQSIISTLT
modifications: not fully specified (residue 15); ends and bridges not checked; also: cleavable moiety on Lys15 side chain, structure not given here
B6: CMP-148, MMP2 cleaved (ligand)
chain: APTSSSTKKTQLQLKHLLLDLQ[Nle]ILNGINNYKNPKLTR[Nle]L[hSer][Yn3]KF[Ygp][Nle]PKKATELKHLQCLEEELKPLEEVL[hSer]LAQSKNFHLRPRDLISNINVIVLELKGSETTF[hSer]CEYADETATIVEFLNRWITFSQSIISTLT
modifications: not fully specified (residue 15); ends and bridges not checked; also: MMP2-cut remnant of cleavable moiety on Lys15 side chain, not given here
B7: CMP-146, MMP2 cleaved (ligand)
chain: APTSSSTKKTKLQLEHLLLDLQ[Nle]ILNGINNYKNPKLTR[Nle]L[hSer][Yn3]KF[Ygp][Nle]PKKATELKHLQCLEEELKPLEEVL[hSer]LAQSKNFHLRPRDLISNINVIVLELKGSETTF[hSer]CEYADETATIVEFLNRWITFSQSIISTLT
modifications: not fully specified (residue 11); ends and bridges not checked; also: MMP2-cut remnant of cleavable moiety on Lys11 side chain, not given here
B8: CMP-146 (ligand)
chain: APTSSSTKKTKLQLEHLLLDLQ[Nle]ILNGINNYKNPKLTR[Nle]L[hSer][Yn3]KF[Ygp][Nle]PKKATELKHLQCLEEELKPLEEVL[hSer]LAQSKNFHLRPRDLISNINVIVLELKGSETTF[hSer]CEYADETATIVEFLNRWITFSQSIISTLT
modifications: not fully specified (residue 11); ends and bridges not checked; also: cleavable moiety on Lys11 side chain, structure not given here
B9: CMP-150, MMP2 cleaved (ligand)
chain: APTSSSTKKTQLQLEHLLLDLK[Nle]ILNGINNYKNPKLTR[Nle]L[hSer][Yn3]KF[Ygp][Nle]PKKATELKHLQCLEEELKPLEEVL[hSer]LAQSKNFHLRPRDLISNINVIVLELKGSETTF[hSer]CEYADETATIVEFLNRWITFSQSIISTLT
modifications: also: K22 side chain bears remnant of cleavable peptide after MMP2 cut, cut site not given here
B10: CMP-147 (ligand)
chain: APTSSSTKKTQLKLEHLLLDLQ[Nle]ILNGINNYKNPKLTR[Nle]L[hSer][Yn3]KF[Ygp][Nle]PKKATELKHLQCLEEELKPLEEVL[hSer]LAQSKNFHLRPRDLISNINVIVLELKGSETTF[hSer]CEYADETATIVEFLNRWITFSQSIISTLT
modifications: not fully specified (residue 13); ends and bridges not checked; also: cleavable moiety on Lys13 side chain, structure not given here
B11: CMP-145, MMP2 cleaved (ligand)
chain: APTSSSTKKTQLQLEHLLLDLQKILNGINNYKNPKLTR[Nle]L[hSer][Yn3]KF[Ygp][Nle]PKKATELKHLQCLEEELKPLEEVL[hSer]LAQSKNFHLRPRDLISNINVIVLELKGSETTF[hSer]CEYADETATIVEFLNRWITFSQSIISTLT
modifications: not fully specified (residue 23, bridges); also: Lys23 side chain bears KKPLGLAG (branched PEG) peptide cut by MMP2, remnants stay attached, cut site not given here
B12: CMP-150 (ligand)
chain: APTSSSTKKTQLQLEHLLLDLK[Nle]ILNGINNYKNPKLTR[Nle]L[hSer][Yn3]KF[Ygp][Nle]PKKATELKHLQCLEEELKPLEEVL[hSer]LAQSKNFHLRPRDLISNINVIVLELKGSETTF[hSer]CEYADETATIVEFLNRWITFSQSIISTLT
modifications: not fully specified (residue 22); ends and bridges not checked; also: cleavable moiety on Lys22 side chain, structure not given here
B13: CMP-136, MMP2 cleaved (ligand)
chain: APTSSSTKKTQLQLEHLLLDLQXILNGIENYKNPKLTRXLXYKFYXPKKATELKHLQCLEEELKPLEEVLXLAQSKNFHLRPRDLISNINVIVLELKGSETTFXCEYADETATIVEFLNRWITFSQSIISTLT
modifications: not fully specified; as CMP-136 but cleavable peptide cut by MMP2 (macrocycle opened); cut site not given
B14: CMP-138, MMP2 cleaved (ligand)
chain: B13 chain
modifications: not fully specified; as CMP-138 but cleavable peptide cut by MMP2 (macrocycle opened); cut site not given
B15: CMP-137, MMP2 cleaved (ligand)
chain: APTSSSTKKTQLQLEHLLLDLQ[Nle]ILNGIENYKNPKLTR[Nle]L[hSer][Yn3″]KF[Ygp″][Nle]PKKATELKHLQCLEEELKPLEEVL[hSer]LAQSKNFHLRPRDLISNINVIVLELKGSETTF[hSer]CEYADETATIVEFLNRWITFSQSIISTLT
modifications: not fully specified (residue 29, N-terminus); ends and bridges not checked; also: macrocycle opened by MMP2, Ala1 N-terminus and Glu29 side chain each carry PEG24-linked peptide remnant, cut site not given here

Molecular target: T1, IL-2 receptor βγ complex on pan T cells
Experiment: cell-based or functional assay

Row | Average EC50, pSTAT5 assay in pan T cells, MMP2 cleaved molecule [nM] | Average EC50, pSTAT5 assay in pan T cells, intact molecule [nM] | Binder
1 | 0.63 | – | B1
2 | – | 46.7 | B2
3 | 1.29 | – | B3
4 | 9.56 | – | B4
5 | – | 3.57 | B5
6 | 0.95 | – | B6
7 | 0.92 | – | B7
8 | – | 4.29 | B8
9 | 0.45 | – | B9
10 | – | 3.86 | B10
11 | 1.43 | – | B11
12 | – | 6.38 | B12

Molecular target: T1, IL-2 receptor βγ complex on pan T cells
Experiment: cell-based or functional assay
Remark: another data set of the same source

Row | Average EC50, pSTAT5 assay in pan T cells, MMP2 cleaved molecule [nM] | Binder
13 | 2.4 | B13
14 | 2.32 | B14
15 | 4.09 | B15
